EC50, binding result and binding affinity data for 9 molecules are collected here from patent US20200270125A1 (OMEROS, published 2020).

Where only a bound is given, the exact number is not on record here.

The target in assay [1] is T1, human MASP-3 CCP1-CCP2-SP fragment (human).
T1 construct: limits of the assay construct are not restated; also called rMASP-3 (CCP1-CCP2-SP)
T1 chain: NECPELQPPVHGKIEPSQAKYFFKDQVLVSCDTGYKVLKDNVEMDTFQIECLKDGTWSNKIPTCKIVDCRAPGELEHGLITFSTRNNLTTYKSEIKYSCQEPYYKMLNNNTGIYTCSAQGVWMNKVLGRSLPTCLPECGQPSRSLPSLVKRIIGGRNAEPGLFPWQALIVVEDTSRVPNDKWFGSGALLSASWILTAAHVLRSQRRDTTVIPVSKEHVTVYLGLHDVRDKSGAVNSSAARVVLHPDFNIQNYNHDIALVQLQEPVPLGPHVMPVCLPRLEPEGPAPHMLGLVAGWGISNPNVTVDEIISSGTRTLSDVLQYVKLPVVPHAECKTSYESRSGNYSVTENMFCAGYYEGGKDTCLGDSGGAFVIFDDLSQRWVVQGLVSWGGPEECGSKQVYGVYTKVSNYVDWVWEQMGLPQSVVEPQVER
In words: sandwich ELISA, MASP-3 CCP1-CCP2-SP captured by αM3-259. The procedure: (§1) The plate was then washed (PBS-T, 0.05%) and the candidate MASP-3 antibodies were added followed by incubation for one hour at room temperature. The plate was washed (PBS-T, 0.05%) and a detection antibody was added (mouse anti-human kappa-HRP, SouthernBiotech #9230-05) for one hour at room temperature. After another wash (PBS-T, 0.05%) the plate was developed (5 minutes) with OPT EIA TMB (BD Biosciences #555214). Absorbance reading at A450 was measured using the Spectramax M5e plate reader.
In general terms: An ELISA detects its analyte on a solid surface through an enzyme-linked reagent.

For assay [2], the target named is T2, recombinant human MASP-1A (S646A, CCP1-CCP2-SP fragment) (human, UniProt P48740 298-699, limits assumed).
T2 chain: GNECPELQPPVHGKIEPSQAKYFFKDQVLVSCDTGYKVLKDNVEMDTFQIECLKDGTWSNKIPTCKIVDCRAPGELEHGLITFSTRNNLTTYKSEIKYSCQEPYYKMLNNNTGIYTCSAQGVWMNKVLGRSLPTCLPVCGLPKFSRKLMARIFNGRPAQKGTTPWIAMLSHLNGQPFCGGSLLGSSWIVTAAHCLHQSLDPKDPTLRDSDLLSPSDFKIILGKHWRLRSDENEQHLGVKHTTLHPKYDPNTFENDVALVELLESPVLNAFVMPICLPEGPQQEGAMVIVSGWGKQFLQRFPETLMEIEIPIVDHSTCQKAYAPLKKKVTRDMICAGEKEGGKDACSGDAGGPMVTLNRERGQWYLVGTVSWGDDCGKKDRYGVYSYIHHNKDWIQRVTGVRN
The assay is described as follows: ELISA: recombinant MASP-1A (S646A, CCP1-CCP2-SP) coated directly on the plate, A450. Here is the method:
as §1

For assay [3], the target named is T3, recombinant full-length mouse MASP-3 (mouse).
T3 construct: Entry is with leader; also called mouse full length MASP-3
T3 chain: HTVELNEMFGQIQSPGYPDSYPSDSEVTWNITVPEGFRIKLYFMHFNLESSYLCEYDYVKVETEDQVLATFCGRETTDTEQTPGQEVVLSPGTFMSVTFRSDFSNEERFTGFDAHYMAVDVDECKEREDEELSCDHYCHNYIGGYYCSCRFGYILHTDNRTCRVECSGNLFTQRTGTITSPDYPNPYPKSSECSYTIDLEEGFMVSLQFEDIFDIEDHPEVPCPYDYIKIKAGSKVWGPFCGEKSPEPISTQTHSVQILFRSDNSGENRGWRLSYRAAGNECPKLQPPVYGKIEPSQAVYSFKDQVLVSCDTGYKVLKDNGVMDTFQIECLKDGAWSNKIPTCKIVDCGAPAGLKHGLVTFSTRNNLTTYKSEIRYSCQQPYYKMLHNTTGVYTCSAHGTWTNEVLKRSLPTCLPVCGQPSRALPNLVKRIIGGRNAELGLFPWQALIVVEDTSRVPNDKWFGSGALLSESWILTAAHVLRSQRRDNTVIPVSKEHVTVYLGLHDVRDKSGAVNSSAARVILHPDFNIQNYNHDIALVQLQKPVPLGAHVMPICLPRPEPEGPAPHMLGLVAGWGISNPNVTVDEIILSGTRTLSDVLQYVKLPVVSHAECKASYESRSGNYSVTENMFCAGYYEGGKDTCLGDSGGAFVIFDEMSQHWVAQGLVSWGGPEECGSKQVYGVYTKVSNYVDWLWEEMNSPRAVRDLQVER
The assay is described as follows: sandwich ELISA, full-length mouse MASP-3 captured by αM3-259. The procedure:
as §1

Assay [4] addresses T4, human MASP-3 (construct not stated) (human).
T4 construct: also called MASP-3 antigen
T4 chain: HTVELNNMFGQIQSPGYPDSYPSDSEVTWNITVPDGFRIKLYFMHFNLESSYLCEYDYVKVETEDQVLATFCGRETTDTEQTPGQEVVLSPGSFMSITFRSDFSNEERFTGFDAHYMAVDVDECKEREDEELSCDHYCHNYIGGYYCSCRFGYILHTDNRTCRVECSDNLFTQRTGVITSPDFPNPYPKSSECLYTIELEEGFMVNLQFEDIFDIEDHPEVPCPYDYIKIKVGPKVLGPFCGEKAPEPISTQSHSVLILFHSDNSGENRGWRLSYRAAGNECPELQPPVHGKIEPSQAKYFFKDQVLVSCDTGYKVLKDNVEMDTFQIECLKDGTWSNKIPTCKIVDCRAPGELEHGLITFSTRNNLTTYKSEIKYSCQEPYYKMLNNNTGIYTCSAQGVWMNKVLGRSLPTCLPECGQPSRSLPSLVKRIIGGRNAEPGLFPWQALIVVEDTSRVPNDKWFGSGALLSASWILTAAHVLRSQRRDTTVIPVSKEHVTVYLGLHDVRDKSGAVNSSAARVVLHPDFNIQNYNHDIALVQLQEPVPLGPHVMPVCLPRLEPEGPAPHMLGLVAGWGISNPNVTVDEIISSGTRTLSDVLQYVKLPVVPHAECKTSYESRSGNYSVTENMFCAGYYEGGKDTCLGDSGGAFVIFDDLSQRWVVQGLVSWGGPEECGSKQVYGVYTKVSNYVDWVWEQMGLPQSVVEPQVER
The assay is described as follows: not described at this place.

Assay [5] has as its target T5, recombinant human MASP-2 (CCP1-CCP2-SP fragment) (human, UniProt O00187 298-686, limits assumed).
T5 construct: domain: CCP1-CCP2-SP fragment
In words: ELISA: recombinant MASP-2 (CCP1-CCP2-SP) coated directly on the plate, A450. Here is the method:
as §1

The target in assay [6] is T4, human MASP-3 (construct not stated). The assay is described as follows: ELISA, monovalent Fab.

T5 sequence (O00187 298-686 limits assumed): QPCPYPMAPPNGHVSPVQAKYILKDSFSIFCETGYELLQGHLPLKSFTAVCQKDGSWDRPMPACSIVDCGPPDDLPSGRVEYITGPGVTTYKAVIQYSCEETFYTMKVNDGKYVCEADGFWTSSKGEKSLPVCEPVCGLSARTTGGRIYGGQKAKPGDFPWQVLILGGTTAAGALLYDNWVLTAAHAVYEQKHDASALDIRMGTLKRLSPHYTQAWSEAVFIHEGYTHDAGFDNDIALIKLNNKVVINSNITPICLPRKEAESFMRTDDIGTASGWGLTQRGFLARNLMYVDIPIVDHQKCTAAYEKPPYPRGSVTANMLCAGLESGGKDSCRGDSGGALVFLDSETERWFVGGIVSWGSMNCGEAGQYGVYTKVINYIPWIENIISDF

B1: MASP-3 mAb 11B6 (mouse-human chimeric IgG4) (antibody, V domains shown)
VH: QVQLKQSGAELVKPGASVKMSCKASGYTFTTYPIEWMKQNHGKSLEWIGNFHPYNGDSKYNEKFKGKATLTVEKSSSTVYLELSRLPSADSAIYYCARRHYAASPWFAHWGQGTLVTVSS
VL: DIVMTQSQKFMSTSVGDRVNVTCKASQNVGPTVAWYQQKPGQSPKALIYSASYRYSGVPDRFTGSGSGTDFTLTISNVHSEDLAEYFCQQYNSYPFTFGSGTKLEIKR
Broadly, the EC50 is the concentration giving half of the maximal effect. On to B1, for which the EC50 in assay [1] stood at 0.06 nM; in assay [3], 0.066 nM. Also, the binding result in assay [2] and in assay [5] was “no binding (tested: about 20 nM (log10 about 1.3))” throughout. Moreover, in assay [4], the binding affinity is no more than 500 pM.

B2: MASP-3 mAb 15D9 (mouse-human chimeric IgG4) (antibody, V domains shown)
VH: QVQLKQSGTELMKPGASVNLSCKASGYTFTAYWIEWVKQRPGHGLEWIGEILPGSGTTNYNENFKDRATFTADTSSNTAYMQLSSLTSEDSAIYYCARSYYYASRWFAFWGQGTLVTVSS
VL: DIVMTQSQKFMSTSIGDRVSVTCRASQNVGPNLAWYQQKPGQSPKALIYSASYRFSGVPDRFTGSGSGTDFTLTISNVQSEDLAEYFCQQYNRYPFTFGSGTKLEIKR
For the molecule B2, the EC50 is 0.074 nM in assay [1] and 0.092 nM in assay [3]. The binding result in assay [2] and in assay [5] was “no binding (tested: about 20 nM (log10 about 1.3))” throughout. Moreover, the binding affinity in assay [4] was no more than 500 pM.

B3: MASP-3 mAb 1B11 (mouse-human chimeric IgG4) (antibody, V domains shown)
VH: QVQLKQSGAELVRPGASVKLSCKASGYTFTDYYINWVKQRPGQGLEWIARIYPGSGNTYYNEKFKGKATLTAEKSSSTAYMQLSSLTSEDSAVYFCARNYYISSPWFAYWGQGTLVTVSS
VL: DIVMTQSQKFMSTSVGDRVSVTCKASQNVGPNVAWYQQKPGQSPKALIYSASYRYSGVPDRFTGSGSGTDFTLTISNVQSEDLADYFCQQYNRYPLTFGAGTKLELKR
As for B3, the results for the EC50 in assay [1] and in assay [3] were 0.059 nM and 1.1 nM, respectively. In addition, the binding result in assay [2] and in assay [5] was “no binding (tested: about 20 nM (log10 about 1.3))” each time. In assay [4], this molecule displayed a binding affinity of no more than 500 pM.

B4: MASP-3 mAb 49C11 (mouse-human chimeric IgG4) (antibody, V domains shown)
VH: EVQLQQSGPVLVKPGASGKMSCKASGYKFTDYYMIWVKQSHGKSLEWIGVIKIYNGGTSYNQKFKGKATLTVDKSSSTAYMELNSLTSEDSAVYYCARGPSLYDYDPYWYFDVWGTGTTVTVSS
VL: DVLMTQTPLSLPVSLGDQASFSCRSSQSLIHSNGNTYLHWYLQKPGQSPKLLIYKVSNRFSGVPDRFSGSGSGTDFTLKISRVEAEDLGVYFCSQSTHVPWTFGGGTKLEIKR
For B4, the EC50 came out at 0.069 nM in assay [1] and 0.064 nM in assay [3]. Besides, the binding result in assay [2] and in assay [5] was “no binding (tested: about 20 nM (log10 about 1.3))” throughout. Moreover, in assay [4], the binding affinity was no more than 500 pM.

B5: MASP-3 mAb 35C1 (mouse-human chimeric IgG4) (antibody, V domains shown)
VH: QIQLVQSGPELKTPGETVKISCKASGYIFTSYGITWVKQAPGKGLKWMGWINTYSGVPTYADDFKGRFAFSLETSASTAYLQINNLKNEDTTTYFCTRGGDALDYWGQGTSVTVSS
VL: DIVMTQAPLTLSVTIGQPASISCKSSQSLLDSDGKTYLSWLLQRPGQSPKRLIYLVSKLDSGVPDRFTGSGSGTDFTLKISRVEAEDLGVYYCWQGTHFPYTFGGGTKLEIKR
With B5, the EC50 in assay [1] was determined as 0.091 nM; in assay [3] it was 0.209 nM. Further, the binding result in assay [2] and in assay [5] was “no binding (tested: about 20 nM (log10 about 1.3))” throughout. In addition, in assay [4], the binding affinity was no more than 500 pM.

B6: MASP-3 mAb 1E7 (mouse-human chimeric IgG4) (antibody, V domains shown)
VH: QVQLKQSGPELARPWASVKISCQAFYTFSRRVHFAIRDTNYWMQWVKQRPGQGLEWIGAIYPGNGDTSYNQKFKGKATLTADKSSSTAYMQLSSLTSEDSAVYYCASGSHYFDYWGQGTTLTVSS
VL: DIQLTQSPAILSVSPGERVSFSCRASQSIGTSIHWYQQRTNGSPRLLIKYASESISGIPSRFSGSGSGTDFTLSINSVESEDIADYYCQQSNSWPYTFGGGTKLEIKR
Consider B6, for which the EC50 is 0.112 nM in assay [1] and 117 nM in assay [3]. For the same molecule, the binding affinity in assay [4] was no more than 500 pM.

B7: h4D5-19-1-NA Fab (VH-19 and VL-1-NA) (Fab, V domains shown)
VH: QVQLVQSGAEVKKPGASVKVSCKASGYTFTTDDINWVRQAPGQGLEWIGWIYPRDDRTKYNDKFKDRATLTVDTSSNTAYMELSSLRSEDTAVYYCSSLEDTYWGQGTLVTVSS
VL: DIVMTQSPDSLAVSLGERATINCKSSQSLLASRTRKNYLAWYQQKPGQPPKLLIYWASTRESGVPDRFSGSGSGTDFTLTISSLQAEDVAVYYCKQSYNLYTFGQGTKVEIKR
notes: Humanized monovalent Fab; also called 4D5-NA mutant
In turn, B7 displayed an EC50 in assay [6] of 0.122 nM.

B8: h4D5-19-1-ST Fab (VH-19 and VL-1-ST) (Fab, V domains shown)
VH: QVQLVQSGAEVKKPGASVKVSCKASGYTFTTDDINWVRQAPGQGLEWIGWIYPRDDRTKYNDKFKDRATLTVDTSSNTAYMELSSLRSEDTAVYYCSSLEDTYWGQGTLVTVSS
VL: DIVMTQSPDSLAVSLGERATINCKSSQSLLNTRTRKNYLAWYQQKPGQPPKLLIYWASTRESGVPDRFSGSGSGTDFTLTISSLQAEDVAVYYCKQSYNLYTFGQGTKVEIKR
notes: also called 4D5-ST mutant
The molecule B8 displayed an EC50 in assay [6] of 0.151 nM.

B9: h4D5-19-1-NQ Fab (VH-19 and VL-1-NQ) (Fab, V domains shown)
VH: QVQLVQSGAEVKKPGASVKVSCKASGYTFTTDDINWVRQAPGQGLEWIGWIYPRDDRTKYNDKFKDRATLTVDTSSNTAYMELSSLRSEDTAVYYCSSLEDTYWGQGTLVTVSS
VL: DIVMTQSPDSLAVSLGERATINCKSSQSLLQSRTRKNYLAWYQQKPGQPPKLLIYWASTRESGVPDRFSGSGSGTDFTLTISSLQAEDVAVYYCKQSYNLYTFGQGTKVEIKR
notes: also called 4D5-NQ mutant
Consider B9, for which the EC50 in assay [6] was determined as 0.732 nM.
